# Test results: patent publication US20260070986A1
# Tests used:
# [1] = target: CD16A endogenously expressed on primary human NK cells (human) (UniProt P08637); assay: flow cytometry on primary human NK cells, biotinylated antibody, 37 C, with 10 mg/mL polyclonal human IgG as competitor, mean of 4
# [2] = target: CD16A endogenously expressed on primary human NK cells (human) (UniProt P08637); assay: flow cytometry on primary human NK cells, 37 °C, biotinylated antibody, streptavidin-FITC, without polyclonal human IgG
# [3] = target: CD16A endogenously expressed on primary human NK cells (human) (UniProt P08637); assay: flow cytometry on primary human NK cells, biotinylated antibody, 37 C, without IgG, mean of 4
# [4] = target: human CD16A-mFc (158F) (sAg_107) (human) (UniProt P08637); assay: ELISA on coated human CD16A-mFc (158F), anti-mouse HRP detection
# [5] = target: human CD16A-mFc (158F) (sAg_107) (human) (UniProt P08637); assay: ELISA, plate coated with human CD16A-mFc (158F), one-site fit, mean of 3
# [6] = target: human CD16A-mFc (158V) (sAg_149) (human) (UniProt P08637); assay: ELISA on coated human CD16A-mFc (158V), anti-mouse HRP detection
# [7] = target: recombinant human FcγRIIC (CD32C), biotinylated (human) (UniProt P31995); assay: SPR (Biacore), 37 °C, biotin-captured human CD32C as ligand, steady-state affinity fit
# [8] = target: recombinant human FcγRIIB (CD32B), biotinylated (human) (UniProt P31994); assay: SPR (Biacore), 37 °C, biotin-captured human CD32B as ligand, steady-state affinity fit
# [9] = target: recombinant murine FcγRIIB (CD32), biotinylated (murine) (UniProt P08101); assay: SPR (Biacore T200), 37 C, biotin-captured receptor, steady-state affinity
# [10] = target: recombinant human FcγRIIA (CD32A), biotinylated (human) (UniProt P12318); assay: as above
# [11] = target: recombinant cynomolgus FcγRIIB/C (CD32B/C), biotinylated (cynomolgus); assay: SPR (Biacore), 37 °C, biotin-captured cynomolgus CD32B/C as ligand, steady-state affinity fit
# [12] = target: recombinant cynomolgus FcγRIIA (CD32A), biotinylated (cynomolgus); assay: SPR (Biacore), 37 °C, biotin-captured cynomolgus CD32A as ligand, steady-state affinity fit
# Chain of control antibody MOR208 (anti-CD19 human IgG1 Fc enhanced) (HC): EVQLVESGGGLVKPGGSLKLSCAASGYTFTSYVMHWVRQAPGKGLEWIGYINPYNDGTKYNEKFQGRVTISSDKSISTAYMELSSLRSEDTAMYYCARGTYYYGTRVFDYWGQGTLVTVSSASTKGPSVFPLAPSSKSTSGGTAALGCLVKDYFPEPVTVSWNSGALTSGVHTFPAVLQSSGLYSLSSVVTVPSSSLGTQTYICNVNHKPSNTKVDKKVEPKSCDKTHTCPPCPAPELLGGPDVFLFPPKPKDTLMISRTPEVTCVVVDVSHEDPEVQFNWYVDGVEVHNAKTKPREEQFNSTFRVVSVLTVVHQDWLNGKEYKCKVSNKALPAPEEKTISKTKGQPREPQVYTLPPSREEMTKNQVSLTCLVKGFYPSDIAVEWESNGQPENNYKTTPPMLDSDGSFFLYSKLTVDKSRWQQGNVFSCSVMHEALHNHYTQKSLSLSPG
# Chain of control antibody MOR208 (anti-CD19 human IgG1 Fc enhanced) (LC): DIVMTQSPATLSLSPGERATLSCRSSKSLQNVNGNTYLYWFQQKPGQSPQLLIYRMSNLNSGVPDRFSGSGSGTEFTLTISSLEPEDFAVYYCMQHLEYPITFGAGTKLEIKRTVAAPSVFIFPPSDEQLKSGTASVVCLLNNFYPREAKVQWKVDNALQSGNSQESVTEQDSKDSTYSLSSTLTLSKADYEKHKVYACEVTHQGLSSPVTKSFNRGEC
# Chain of CD16A endogenously expressed on primary human NK cells (human) (P08637 17-254 limits assumed): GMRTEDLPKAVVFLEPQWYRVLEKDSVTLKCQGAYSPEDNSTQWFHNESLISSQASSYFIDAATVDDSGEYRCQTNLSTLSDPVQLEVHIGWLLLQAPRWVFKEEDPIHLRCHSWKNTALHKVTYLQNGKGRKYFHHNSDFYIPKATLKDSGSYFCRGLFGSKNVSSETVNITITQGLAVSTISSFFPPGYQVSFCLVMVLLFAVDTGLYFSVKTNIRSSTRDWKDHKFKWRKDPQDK
# Chain of human CD16A-mFc (158F) (sAg_107) (human) (P08637 17-208 limits assumed): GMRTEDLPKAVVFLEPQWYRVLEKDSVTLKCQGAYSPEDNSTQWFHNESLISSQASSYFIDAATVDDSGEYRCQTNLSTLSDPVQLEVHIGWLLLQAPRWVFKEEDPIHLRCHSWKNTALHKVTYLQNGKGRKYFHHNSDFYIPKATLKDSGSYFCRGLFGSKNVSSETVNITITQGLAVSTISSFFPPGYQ
# Chain of recombinant human FcγRIIA (CD32A), biotinylated (human) (P12318 34-218 limits assumed): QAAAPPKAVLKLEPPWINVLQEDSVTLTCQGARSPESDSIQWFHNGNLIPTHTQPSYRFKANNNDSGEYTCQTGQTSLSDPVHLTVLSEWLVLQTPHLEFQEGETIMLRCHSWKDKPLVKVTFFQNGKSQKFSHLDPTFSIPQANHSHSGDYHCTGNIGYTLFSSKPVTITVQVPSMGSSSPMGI
# Chain of recombinant human FcγRIIB (CD32B), biotinylated (human) (P31994 43-217 limits assumed): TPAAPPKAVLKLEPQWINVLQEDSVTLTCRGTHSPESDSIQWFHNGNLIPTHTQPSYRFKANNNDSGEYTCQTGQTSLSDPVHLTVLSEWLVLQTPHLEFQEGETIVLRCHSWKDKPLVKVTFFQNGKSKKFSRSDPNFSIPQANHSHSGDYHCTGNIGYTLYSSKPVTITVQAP
# Chain of recombinant murine FcγRIIB (CD32), biotinylated (murine) (P08101 30-207 limits assumed): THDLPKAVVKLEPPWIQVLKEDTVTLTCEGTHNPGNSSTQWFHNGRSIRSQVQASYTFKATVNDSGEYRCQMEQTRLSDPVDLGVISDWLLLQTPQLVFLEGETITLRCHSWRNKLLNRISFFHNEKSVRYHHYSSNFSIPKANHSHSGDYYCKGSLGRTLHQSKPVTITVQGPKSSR
# Chain of recombinant human FcγRIIC (CD32C), biotinylated (human) (P31995 43-223 limits assumed): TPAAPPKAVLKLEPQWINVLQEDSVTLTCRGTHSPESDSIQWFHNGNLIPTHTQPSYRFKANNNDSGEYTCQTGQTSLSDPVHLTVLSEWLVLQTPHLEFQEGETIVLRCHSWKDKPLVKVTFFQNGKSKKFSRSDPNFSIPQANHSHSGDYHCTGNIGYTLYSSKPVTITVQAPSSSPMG
Kd [1] [nM],EC50 (read off the curve) [2] [nM],Kd [3] [nM],EC50 (read off the curve) [4] [nM],Kd [5] [nM],EC50 (read off the curve) [6] [nM],Kd [7] [nM],Kd [8] [nM],Kd [9] [nM],Kd [10] [nM],Kd [11] [nM],Kd [12] [nM],Substance
54.6,0.4,0.3,0.03,0.02,0.3,–,–,–,–,–,–,anti-human CD16 antibody clone 3G8
–,–,–,–,–,–,474,821,1750,223,351,263,control antibody MOR208 (anti-CD19 human IgG1 Fc enhanced)
